16 molecules from patent US20160347808A1 (IMMATICS BIOTECHNOLOGIES, published 2016) can be followed below.

The target in the experiment is T1, HLA-A*02:01 (peptide-receptive MHC class I monomer from UV-ligand exchange) (human).
T1 construct: Monomers were captured on streptavidin-coated plates
Briefly: UV-exchange ELISA (anti-b2m); exchange yield grade: + >=10%, ++ >=20%, +++ >=50%, ++++ >=75%. In short, it runs like this: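 Exchange yield, UV-ligand exchange: 100-fold diluted samples on streptavidin plates, 1 h at 37 °C; HRP anti-β2m 1 h at 37 °C; TMB read at 450 nm.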
As for GLSEGHTFQV [peptide GLSEGHTFQV (SEQ ID NO 101)], the peptide exchange yield is 50 to 75%.

Consider ILDDHLSRV [peptide ILDDHLSRV (SEQ ID NO 9)], for which the peptide exchange yield was 20 to 50%.

As to KLLEVDLDTV [peptide KLLEVDLDTV (SEQ ID NO 99)], the peptide exchange yield was 50 to 75%.

In the case of AILDAHIEV [peptide AILDAHIEV (SEQ ID NO 95)], the peptide exchange yield is at least 75%.

As to KLYSRLVYV [peptide KLYSRLVYV (SEQ ID NO 96)], the peptide exchange yield was 20 to 50%.

On to AMNGKSFSV [peptide AMNGKSFSV (SEQ ID NO 98)], for which the peptide exchange yield lay in the range of 20 to 50%.

In the case of GLLKPGLNVVL [peptide GLLKPGLNVVL (SEQ ID NO 90)], the peptide exchange yield fell in the range of 50 to 75%.

Consider TVDVATPSV [peptide TVDVATPSV (SEQ ID NO 91)], for which the peptide exchange yield lay in the range of 50 to 75%.

As for SLQELRLLL [peptide SLQELRLLL (SEQ ID NO 93)], the peptide exchange yield was at least 75%.

Consider SLIEYEFRV [peptide SLIEYEFRV (SEQ ID NO 89)], for which the peptide exchange yield was 50 to 75%.

For FLFGYPKRL [peptide FLFGYPKRL (SEQ ID NO 103)], the peptide exchange yield is 20 to 50%.

With KILVSLIEV [peptide KILVSLIEV (SEQ ID NO 102)], the peptide exchange yield is 50 to 75%.

With ALWWGVVTV [peptide ALWWGVVTV (SEQ ID NO 97)], the peptide exchange yield was in the range of 20 to 50%.

Regarding SLDDFLATA [peptide SLDDFLATA (SEQ ID NO 100)], the peptide exchange yield was 50 to 75%.

WIDDTSAFV [peptide WIDDTSAFV (SEQ ID NO 92)]: the peptide exchange yield is 50 to 75%.

Regarding KSMDIVLTV [peptide KSMDIVLTV (SEQ ID NO 94)], the peptide exchange yield fell in the range of 50 to 75%.
